Test results: the supplement of paper PMC9112550, “Optimization of the antimicrobial peptide Bac7 by deep mutational scanning” (BMC Biology, 2022)

Test system: Escherichia coli TOP10
Test: shrunken log2 fold change of peptide-encoding DNA abundance (4.5 h post-induction vs induction); higher = less antimicrobial activity (less host growth inhibition)
Conditions: time post-induction: 4.5 h; library: site-saturation at positions 5, 18, 19, 20
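Also: peptides expressed intracellularly from a pBAD plasmid library in pooled LB shake-flask culture, induced with 0.3% L-arabinose, DNA abundance read by NGS, three biological replicates, DESeq2 with apeglm shrinkage.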

| Sequence | shrunken log2 fold change |
| --- | --- |
| RRIRQRPPRLPRPRPRPRLAPRP | 0.594 |
| RRIRWRPPRLPRPRPRPQPTPRP | 0.334 |
| RRIRWRPPRLPRPRPRPQPGPRP | 0.221 |
| RRIRGRPPRLPRPRPRPHTSPRP | -0.00444 |
| RRIRQRPPRLPRPRPRPFGGPRP | 0.0432 |
| RRIRCRPPRLPRPRPRPFACPRP | -0.22 |
| RRIRERPPRLPRPRPRPWMFPRP | 0.0458 |
| RRIRCRPPRLPRPRPRPVAAPRP | 0.689 |
| RRIRFRPPRLPRPRPRPYLPPRP | -0.216 |
| RRIRSRPPRLPRPRPRPFRLPRP | -0.793 |
| RRIRNRPPRLPRPRPRPLTDPRP | -0.193 |
| RRIRYRPPRLPRPRPRPWITPRP | -0.0192 |
| RRIRNRPPRLPRPRPRPGQMPRP | 0.00315 |
| RRIRLRPPRLPRPRPRPRAYPRP | 0.0155 |
| RRIRFRPPRLPRPRPRPGIMPRP | -0.124 |
| RRIRGRPPRLPRPRPRPWPNPRP | -0.0526 |
| RRIRCRPPRLPRPRPRPDYFPRP | -0.248 |
| RRIRHRPPRLPRPRPRPDFHPRP | -0.769 |
| RRIRARPPRLPRPRPRPMDPPRP | 0.0606 |
| RRIRKRPPRLPRPRPRPRNDPRP | 0.352 |
| RRIRKRPPRLPRPRPRPVKCPRP | 0.105 |
| RRIRSRPPRLPRPRPRPNPKPRP | 0.0189 |
| RRIRYRPPRLPRPRPRPNNAPRP | -1.1 |
| RRIRQRPPRLPRPRPRPSSCPRP | 0.0394 |
| RRIRARPPRLPRPRPRPMQIPRP | 0.446 |

| Sequence | shrunken log2 fold change |
| --- | --- |
| RRIRIRPPRLPRPRPRPHTDPRP | -0.777 |
| RRIRARPPRLPRPRPRPWPQPRP | 0.403 |
| RRIRARPPRLPRPRPRPFTQPRP | -0.0692 |
| RRIRDRPPRLPRPRPRPYWAPRP | -0.0312 |
| RRIRLRPPRLPRPRPRPIADPRP | -0.0951 |
| RRIRHRPPRLPRPRPRPTQRPRP | 0.462 |
| RRIRQRPPRLPRPRPRPRHMPRP | -0.316 |
| RRIRCRPPRLPRPRPRPCNKPRP | -0.671 |
| RRIRLRPPRLPRPRPRPKSPPRP | 0.0414 |
| RRIRSRPPRLPRPRPRPQVTPRP | -0.196 |
| RRIRARPPRLPRPRPRPTGTPRP | 0.363 |
| RRIRGRPPRLPRPRPRPMNYPRP | 0.00834 |
| RRIRQRPPRLPRPRPRPTDQPRP | 0.411 |
| RRIRYRPPRLPRPRPRPLGNPRP | 0.0523 |
| RRIRYRPPRLPRPRPRPGKSPRP | 0.0131 |
| RRIRIRPPRLPRPRPRPELMPRP | -0.00872 |
| RRIRCRPPRLPRPRPRPAFAPRP | 0.134 |
| RRIRCRPPRLPRPRPRPAEHPRP | 0.0782 |
| RRIRDRPPRLPRPRPRPCASPRP | -0.0652 |
| RRIRERPPRLPRPRPRPQRSPRP | -0.106 |
| RRIRNRPPRLPRPRPRPRFSPRP | 0.0393 |
| RRIRCRPPRLPRPRPRPPVQPRP | 0.652 |
| RRIRYRPPRLPRPRPRPNVYPRP | -1.2 |
| RRIRQRPPRLPRPRPRPNEMPRP | 0.105 |
| RRIRLRPPRLPRPRPRPGTMPRP | -0.0422 |

| Sequence | shrunken log2 fold change |
| --- | --- |
| RRIRVRPPRLPRPRPRPNPSPRP | 0.0073 |
| RRIRKRPPRLPRPRPRPCCFPRP | 0.112 |
| RRIRLRPPRLPRPRPRPWGRPRP | -0.0734 |
| RRIRARPPRLPRPRPRPAWHPRP | 0.159 |
| RRIRCRPPRLPRPRPRPEPYPRP | -0.364 |
| RRIRYRPPRLPRPRPRPTGMPRP | 0.0495 |
| RRIRNRPPRLPRPRPRPYGWPRP | -0.012 |
| RRIRRRPPRLPRPRPRPRFWPRP | 0.652 |
| RRIRERPPRLPRPRPRPGEGPRP | 0.028 |
| RRIRWRPPRLPRPRPRPFFYPRP | 0.0746 |
| RRIRNRPPRLPRPRPRPDKIPRP | 0.159 |
| RRIRIRPPRLPRPRPRPPLKPRP | -0.105 |
| RRIRVRPPRLPRPRPRPHATPRP | 0.204 |
| RRIRYRPPRLPRPRPRPQKHPRP | -0.777 |
| RRIRCRPPRLPRPRPRPWTKPRP | -0.402 |
| RRIRVRPPRLPRPRPRPPTAPRP | 0.43 |
| RRIRFRPPRLPRPRPRPDVRPRP | 0.0165 |
| RRIRCRPPRLPRPRPRPAADPRP | 0.341 |
| RRIRERPPRLPRPRPRPVLHPRP | -0.0594 |
| RRIRLRPPRLPRPRPRPSSWPRP | -0.0958 |
| RRIRRRPPRLPRPRPRPDKPPRP | 0.583 |
| RRIRQRPPRLPRPRPRPKYIPRP | -1.11 |
| RRIRIRPPRLPRPRPRPQCKPRP | -0.532 |
| RRIRTRPPRLPRPRPRPWDDPRP | 0.033 |
| RRIRYRPPRLPRPRPRPFMQPRP | -0.403 |
